Patent US9187735B2, “Metal abstraction peptide with superoxide dismutase activity” (University of Kansas, priority 2012, dated 2015)
No end group written: not given here.

Columns and labels:
[1] = Cyclic voltammetry, midpoint potential; type: physicochemical; conditions: pH 10, measured immediately after generation
Experimental: Electrochemical data were collected. A 3 mL sample of 3 mM Ni-NCC was prepared in 50 mM sodium borate at pH 10. CV data were collected with a CH1812C Electrochemical Analyzer potentiostat (CH Instruments) with a three-electrode setup (platinum working electrode, Bioanalytical Systems, Inc.; Pt auxiliary electrode; Ag/AgCl reference electrode) in a glass CV cell. Potential was applied from zero to 1.2 V with a scan rate of 0.2 V per second, and current was measured. The same experiment was attempted on a 3 mM Ni-NCC sample in 50 mM potassium phosphate at the same pH. The sample was incubated for 24 hours and analyzed again.
Electrochemical data were collected as previously described. 3-mL samples of 3 mM Ni-GGNCC (SEQ ID NO. 1) and Ni-GGGCC (SEQ ID NO. 3) were prepared in 50 mM potassium phosphate at pH 7.4. After incorporation, pH was raised to 10 to observe more intense signal. Cyclic voltammetry (CV) data were collected with a CH1812C Electrochemical Analyzer potentiostat (CH Instruments) with a three-electrode setup (platinum working electrode, Bioanalytical Systems, Inc.; Pt auxiliary electrode; Ag/AgCl reference electrode) in a glass CV cell. Potential was applied from zero to 1.2 V with a scan rate of 0.2 V per second, and current was measured.

[2] = Ni-SOD xanthine/xanthine oxidase coupled assay (superoxide scavenging); type: biochemical; conditions: cytochrome c, absorbance at 550 nm, reaction buffer pH 7.8
Experimental: Ni-SOD activity was determined, except Ni-NCC was generated in situ using one equivalent NiSO4. Ni-NCC was aged for 0-120 minutes, and the Ni-SOD activity was determined using the standard xanthine/xanthine oxidase method developed by Crappo and coworkers. All reagents were generated in 50 mM potassium phosphate, 100 μM EDTA reaction buffer at pH 7.8 except for Ni-NCC, which was generated in 50 mM potassium phosphate, pH 7.4. 600 μM cytochrome c from bovine heart (Sigma), 300 μM xanthine (Sigma) and enough xanthine oxidase from buttermilk (Sigma) to cause a change in absorbance at […] of 0.02-0.04 AU per minute were added to a final volume of 300 μL with reaction buffer. The change in absorbance at 550 nm was monitored on a Cary 100 UV-Visible spectrophotometer (Varian). The assay was performed with 100 μM Ni-NCC.
Superoxide scavenging activity was determined as reported previously, except Ni-peptides were generated in situ using one equivalent of NiSO4. Superoxide scavenging activity of Ni-GGGCC (SEQ ID NO. 3), Ni-GGNCC (SEQ ID NO. 1), Ni-GNNCC (SEQ ID NO. 4), and Ni-GNGCC (SEQ ID NO. 5) was determined using the standard xanthine/xanthine oxidase method developed by Crapo and coworkers. […] The change in absorbance at 550 nm was monitored on a Cary 100 UV-Visible spectrophotometer (Varian).

[3] = Photopolymerization of hydroxy ethyl methacrylic acid (HEMA), rate by FTIR; conditions: light 550 mW cm-2 for 40 seconds
Experimental: Photopolymerization of hydroxy ethyl methacrylic acid (HEMA) was initiated using a visible light-curing unit (Spectrum® 800, Dentsply, Milford, Del., USA) at an intensity of 550 mW cm-2 for 40 seconds. The subsequent rate of polymerization was measured via FTIR and is reported as a normalized ratio of peak intensities from unreacted and reacted monomer (1455 cm^−1 and 1673 cm^−1). The rate of polymerization was altered by the addition of Ni-NCC and Ni-GGNCC (SEQ ID NO. 1). See FIG. 31, illustrating the percentage of polymer remaining over time.

IC50 [2] [µM] | Substance | midpoint potential [1] [V vs Ag/AgCl] | effect on rate of polymerization [3]
 | Ni-GGGCC: nickel complex of pentapeptide GGGCC (SEQ ID NO. 3) (cysteine pairing not given here; also: nickel complex) | 0.78 | 
9.1 | XXLLL-GGNCC (not fully specified (N-terminus); cysteine pairing not given here; also: metallated with nickel) [Ni-GGNCC] | 0.8 | slowed the rate of polymerization
